Positions count from the first letter of the chain named.
B1: 377 (protein)
chain: MAQGKVALEEHFAIPETLQDSAGFVPGDYWKELQHRLLDIQDTRLKLMDAHGIETMILSLAAPAVQAIPDRRKAIEIARRANDFLAEECAKRPDRFLAFAALPMQDPDAATEELQRCVNDLGFVGALVNGFSQEGDGQTPLYYDLPQYRPFWGEVEKLDVPFYLHPRNPLPQDSRIYDGHPWLLGPTWAFAQETAVHALRLMASGLFDEHPRLNIILGHMGEGLPYMMYRIDHRIAWVQEPPRYPAKRRFMDYFNENFHITTSGNFRTQTLIDAILEIGADRILFSTDWPFENIDHAADWFNATSIAEADRVKIGRTNARRLFKLDVD
modifications: Dicamba decarboxylase variant
B2: 469 (protein)
chain: MAQGKVALEEHFAIPETLQDAAGFVPGDYWKELQHRLLDIQDTRLKLMDKHEIGTMILSLAAPAVQAIPDRRKAIEIARRANDFLAEEVAKRPDRFLAFAALPLQDPDAATEELQRCVNDLGFVGAMVNGFSQEGDGQTPLYYDLPQYRPFWGEVEKLDVPFYLHPRNPLPQDSRIYDGHPWLLGPTWAFAQETAVHALRLMASGLFDEHPRLNIILGHMGEGLPYMMYRIDHRIAWVKAPPDYPAKRRFMDYFNENFHITTSGNFRTQTLIDAILEIGADRILFSTDWPFENIDHAADWFNATSIAEADRVKIGRTNARRLFKLDGR
modifications: Dicamba decarboxylase variant
B3: 493 (protein)
chain: B2 chain with Q19N, G27S, D28E, R72V, P107V, N255L
modifications: Dicamba decarboxylase variant
B4: 494 (protein)
chain: B2 chain with Q19N, G27S, D28E, G54E, R72V, P107V, N255L
modifications: Dicamba decarboxylase variant
B5: 496 (protein)
chain: B2 chain with Q19N, G23D, G27S, D28E, G54E, P107V, N255L
modifications: Dicamba decarboxylase variant
B6: 479 (protein)
chain: B2 chain with G23D, G27S, D28E, R72V, P107V, N255L
modifications: Dicamba decarboxylase variant
B7: 473 (protein)
chain: B2 chain with G54E, N119R, R212G, M220L, N255L, D299A
modifications: Dicamba decarboxylase variant
B8: 505 (protein)
chain: B2 chain with G23D, G27S, D28E, G54E, P107V, N255L
modifications: Dicamba decarboxylase variant
B9: 503 (protein)
chain: B2 chain with Q19N, G23D, G27S, D28E, R72V, N255L
modifications: Dicamba decarboxylase variant
B10: 474 (protein)
chain: B2 chain with G54E, M220L
modifications: Dicamba decarboxylase variant
B11: 478 (protein)
chain: B2 chain with Q19N, G23D, G27S, D28E, R72V, P107V, N255L
modifications: Dicamba decarboxylase variant
B12: 475 (protein)
chain: B2 chain with Q19N, G23D, G54E, L104M, Q133V, G153K, R212G, N255L, D299A, V312L
modifications: Dicamba decarboxylase variant
B13: 504 (protein)
chain: B2 chain with Q19N, G23D, G27S, D28E, R72V, K157Q, N255L
modifications: Dicamba decarboxylase variant
B14: 472 (protein)
chain: B2 chain with Q19N, T43Q, K46R, G153K, R212G, N255L, D299A
modifications: Dicamba decarboxylase variant
B15: 470 (protein)
chain: B2 chain with G54E, L104M, P107V, N119R, M220L, N255L
modifications: Dicamba decarboxylase variant
B16: 492 (protein)
chain: B2 chain with G23D, G27S, D28E, G54E, R72V, P107V, N255L
modifications: Dicamba decarboxylase variant
B17: 476 (protein)
chain: B2 chain with G54E, Q133V, G153K, R212G, D299A
modifications: Dicamba decarboxylase variant
B18: 495 (protein)
chain: B2 chain with Q19N, G27S, D28E, G54E, P107V, N255L
modifications: Dicamba decarboxylase variant
B19: 471 (protein)
chain: B2 chain with G23D, G54E, N119R, M220L, N255L
modifications: Dicamba decarboxylase variant
B20: 477 (protein)
chain: B2 chain with Q19N, G23D, G27S, D28E, G54E, R72V, P107V, N255L
modifications: Dicamba decarboxylase variant
B21: 491 (protein)
chain: B2 chain with Q19N, G27S, D28E, G54E, E209V, N255L
modifications: Dicamba decarboxylase variant
B22: 490 (protein)
chain: B2 chain with Q19N, G27S, D28E, R72V, N255L
modifications: Dicamba decarboxylase variant
B23: 480 (protein)
chain: MAQGKVALEEHFAIPETLNDAAGFVPSEYWKELQHRLLDIQDQRLRLMDKHEIETMILSLAAPAVQSIPDRVKAIEIARRANDFLAEEVAKRPDRFLAFAALPLQDVDAATEELQRCVNDLGFVGAMVNGFSQEGDGQTPLYYDLPQYRPFWGEVEKLDVPFYLHPRNPLPQDSRIYDGHPWLLGPTWAFAQETAVHALRLMASGLFDEHPGLNIILGHLGEGLPYMMYRIDHRIAWVKAPPDYPAKRRFMDYFLENFHITTSGNFRTQTLIDAILEIGADRILFSTDWPFENIDHAAAWFNATSIAEADRVKIGRTNARRLFKLDGR
modifications: Dicamba decarboxylase variant
B24: 482 (protein)
chain: B23 chain with G23D, S67A, P69G, L104M, N119R, L220M
modifications: Dicamba decarboxylase variant
B25: 489 (protein)
chain: B23 chain with G23D, L104M, G212R, A299D
modifications: Dicamba decarboxylase variant
B26: 498 (protein)
chain: B23 chain with G23D, S67A, P69G, N119R, G153K, L220M, A299D
modifications: Dicamba decarboxylase variant
B27: 502 (protein)
chain: B23 chain with G23D, M56T, S67A, P69G, G153K, G212R, L220M, A299D
modifications: Dicamba decarboxylase variant
B28: 499 (protein)
chain: B23 chain with G23D, R46K, N119R, G153K, G212R
modifications: Dicamba decarboxylase variant
B29: 500 (protein)
chain: B23 chain with S67A, P69G, L104M, N119R, G153K
modifications: Dicamba decarboxylase variant
B30: 501 (protein)
chain: B23 chain with N19Q, G23D, R46K, L104M, N119R, G153K, L220M, A299D
modifications: Dicamba decarboxylase variant
B31: 483 (protein)
chain: B23 chain with R46K, E54G, S67A, P69G, L104M, N119R, G153K, G212R, L220M, A299D
modifications: Dicamba decarboxylase variant
B32: 481 (protein)
chain: B23 chain with G23D, E54G, N119R, A299D
modifications: Dicamba decarboxylase variant
B33: 487 (protein)
chain: B23 chain with G23D, S67A, P69G, L104M, N119R, A299D
modifications: Dicamba decarboxylase variant
B34: 488 (protein)
chain: B23 chain with E54G, P69G, A299D
modifications: Dicamba decarboxylase variant
B35: 486 (protein)
chain: B23 chain with G23D, R46K, S67A, P69G, L104M, N119R, G153K, G212R, L220M
modifications: Dicamba decarboxylase variant
B36: 484 (protein)
chain: B23 chain with G23D, S67A, P69G, G153K
modifications: Dicamba decarboxylase variant
B37: 485 (protein)
chain: B23 chain with G23D, Q43T, N119R, G153K, A299D
modifications: Dicamba decarboxylase variant
B38: 497 (protein)
chain: B23 chain with G23D, L104M, G153K, A299D
modifications: Dicamba decarboxylase variant

test: DNA shuffling libraries: 14CO2 capturing assay in 384-well format, fold activity of backbone (Megatable 2); settings: relative to backbone SEQ ID NO: 133 (DDEC0201)

| Molecule | Fold Activity [fold] |
| --- | --- |
| B1 | 1.0 |

same assay, conditions: relative to backbone SEQ ID NO: 380 (DDEC0301)

| Molecule | Fold Activity [fold] |
| --- | --- |
| B2 | 1.8 |
| B3 | 2.2 |
| B4 | 1.9 |
| B5 | 2.2 |
| B6 | 1.4 |
| B7 | 1.9 |
| B8 | 2.0 |
| B9 | 2.1 |
| B10 | 1.6 |
| B11 | 1.9 |
| B12 | 1.2 |
| B13 | 2.3 |
| B14 | 1.4 |
| B15 | 1.8 |
| B16 | 2.3 |
| B17 | 1.8 |
| B18 | 2.2 |
| B19 | 1.3 |
| B20 | 2.1 |

| Molecule | Fold Activity [fold] |
| --- | --- |
| B21 | 2.1 |
| B22 | 2.2 |
| B23 | 1.1 |
| B24 | 0.9 |
| B25 | 1.4 |
| B26 | 1.3 |
| B27 | 1.0 |
| B28 | 0.9 |
| B29 | 0.9 |
| B30 | 1.5 |
| B31 | 1.4 |
| B32 | 1.1 |
| B33 | 1.1 |
| B34 | 1.4 |
| B35 | 0.8 |
| B36 | 0.9 |
| B37 | 0.9 |
| B38 | 1.0 |

— patent US20160040149A1, “Compositions Having Dicamba Decarboxylase Activity and Methods of Use” (priority 2013, published 2016)
